Data taken from patent US20220251236A1 (Boehringer Ingelheim, published 2022).

How the values were obtained:
[1] = biological target: T1, T CELLS (human, UniProt P07766;P09693); assay: flow cytometry titration on purified human T cells, PE anti-human secondary, x-fold over background
T1 construct: native, on the surface of purified human T cells; The sheets print only 'T CELLS'; also called human CD3 on purified human T cells; CD3 epsilon/gamma complex
Description: (§1) Cells (T cells or human SCLC cells) were stained with increasing concentrations of two-step purified DLL3/CD3 binding proteins with increasing concentrations in FACS buffer (PBS/0.5% BSA/0.05% sodium azide). Bound molecules were detected with PE-conjugated anti-human secondary antibody (Sigma-Aldrich, #P8047).

[2] = biological target: T2, Cyno DLL3-His (cynomolgus monkey, UniProt Q9NYJ7 27-492 (human entry)); assay: SPR; ratio of the KD values for human and cyno DLL3
T2 construct: also called cy DLL3; recombinant cyno DLL3-ECD
T2 chain: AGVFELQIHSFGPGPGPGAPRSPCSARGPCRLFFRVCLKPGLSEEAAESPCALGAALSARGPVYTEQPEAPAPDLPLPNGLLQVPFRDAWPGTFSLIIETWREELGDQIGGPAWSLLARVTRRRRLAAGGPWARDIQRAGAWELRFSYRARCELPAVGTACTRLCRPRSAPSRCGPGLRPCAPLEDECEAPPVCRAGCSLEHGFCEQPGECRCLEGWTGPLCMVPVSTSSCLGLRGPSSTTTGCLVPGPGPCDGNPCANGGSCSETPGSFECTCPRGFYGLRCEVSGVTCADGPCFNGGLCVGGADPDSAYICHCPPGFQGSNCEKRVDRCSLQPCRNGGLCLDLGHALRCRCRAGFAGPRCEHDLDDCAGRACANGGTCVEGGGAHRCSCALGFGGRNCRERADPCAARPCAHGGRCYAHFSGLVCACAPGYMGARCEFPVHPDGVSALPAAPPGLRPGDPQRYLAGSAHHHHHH
Experimental: (§2) The binding affinity of purified DLL3/CD3 bispecific constructs for recombinant human and cyno DLL3-ECD and Fc-fusion proteins of human and cyno CD3 εγ subunits was determined by Surface Plasmon Resonance (SPR), using a ProteOn XPR36 instrument (Bio-Rad). The running buffer and all dilutions (except where stated) were done in PBS-T-EDTA. The GLM sensor chip (Bio-Rad) was normalized and pre-conditioned as per the manufacturer's recommendations. The sensor chip was activated with equal mixture of EDC/s-NHS in the horizontal direction for 300 sec at a flow rate of 30 ul/min and immobilized with protein A/G (20 ug/ml in 10 mM acetate pH 4.5) in the horizontal direction for 300 sec at a flowrate of 30 ul/min resulting in ˜5000 RU of protein A/G on the surface. The sensor chip was deactivated with 1M ethanolamine HCl in the horizontal direction for 300 sec at a flowrate of 30 μl/min.
(§3) For binding kinetic determination to DLL3, bispecific molecules were captured individually on the protein A/G surface vertically for 250 sec at a flowrate of 25 μl/min. The baseline was stabilized by injecting PBS-T-EDTA for 60 sec at a flowrate of 40 μl/min horizontally. The analyte (hu DLL3 or cy DLL3) was injected horizontally over the captured antibody for 600 sec at a flowrate of 40 μl/min and a dissociation for 2700 sec.
(§4) The inter spot (interactions with sensor surface) and blank (PBS-T-EDTA) were subtracted from the raw data.

[3] = biological target: T2, Cyno DLL3-His; assay: SPR (ProteOn XPR36), bispecific captured on protein A/G, DLL3 as analyte, Example 4A
Experimental: as §2, §3, §4

[4] = biological target: T3, human DLL3 (endogenous, on SCLC cell lines NCI-H82 and SHP77 and in SCLC tissue) (human, UniProt Q9NYJ7 27-618); assay: flow cytometry titration on SHP77 cells, PE anti-human secondary, x-fold over background
T3 construct: whole, on cells; also called SCLC cell lines expressing DLL3
T3 sequence (looked up): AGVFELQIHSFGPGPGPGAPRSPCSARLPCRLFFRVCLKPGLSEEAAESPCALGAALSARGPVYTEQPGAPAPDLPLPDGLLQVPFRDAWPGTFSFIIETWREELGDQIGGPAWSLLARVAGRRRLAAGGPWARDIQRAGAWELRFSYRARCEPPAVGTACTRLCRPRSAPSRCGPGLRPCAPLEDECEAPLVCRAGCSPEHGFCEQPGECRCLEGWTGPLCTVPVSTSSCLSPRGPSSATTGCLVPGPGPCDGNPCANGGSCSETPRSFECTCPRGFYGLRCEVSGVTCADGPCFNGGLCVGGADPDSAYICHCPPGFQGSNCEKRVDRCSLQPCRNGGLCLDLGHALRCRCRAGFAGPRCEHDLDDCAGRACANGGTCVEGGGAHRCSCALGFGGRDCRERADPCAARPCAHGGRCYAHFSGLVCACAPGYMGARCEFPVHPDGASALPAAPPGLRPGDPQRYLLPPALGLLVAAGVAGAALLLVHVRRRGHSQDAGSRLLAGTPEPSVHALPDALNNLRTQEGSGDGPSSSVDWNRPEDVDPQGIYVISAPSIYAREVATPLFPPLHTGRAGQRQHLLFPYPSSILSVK
Description: as §1

[5] = biological target: T3, human DLL3 (endogenous, on SCLC cell …); assay: flow cytometry titration on NCI-H82 cells, PE anti-human secondary, x-fold over background
Description: as §1

T1 sequence (P07766 23-207, chain 1 of 2): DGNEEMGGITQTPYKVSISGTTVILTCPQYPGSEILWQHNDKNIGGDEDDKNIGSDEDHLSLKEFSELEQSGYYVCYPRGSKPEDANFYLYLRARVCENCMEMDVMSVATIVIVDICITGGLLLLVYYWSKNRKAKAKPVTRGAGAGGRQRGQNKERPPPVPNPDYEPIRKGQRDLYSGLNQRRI
T1 sequence (P09693 23-182, chain 2 of 2): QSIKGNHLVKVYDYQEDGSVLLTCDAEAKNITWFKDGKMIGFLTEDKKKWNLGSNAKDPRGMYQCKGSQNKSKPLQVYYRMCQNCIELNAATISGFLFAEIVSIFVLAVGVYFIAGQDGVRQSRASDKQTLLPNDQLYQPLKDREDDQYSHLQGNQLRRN

B1: DLL3#2/CD3#1 (bispecific antibody, human IgG1, kappa, lambda, L234A L235A)
chain 1: DIQMTQSPSAMSASVGDRVTITCRASQGISNYLAWFQQKPGKVPEPLIYAASSLQSGVPSRFSGSGSVTEFTLTISSLQPEDFATYYCLQHNSSPYTFGQGTKLEIKRTVAAPSVFIFPPSDEQLKSGTASVVCLLNNFYPREAKVQWKVDNALQSGNSQESVTEQDSKDSTYSLSSTLTLSKADYEKHKVYACEVTHQGLSSPVTKSFNRGECGGGGSEGKSSGSGSESKSTEGKSSGSGSESKSTGGGGSQVQLVQSGAEVKKPGASVKVSCKASGYTFTSYYMHWVRQAPGQGLEWMGIINPSGGSTSYAQKFQGRVTMTRDTSTSTVYMELSSLRSEDTAVYYCARGEAVGGNYYYYGMDVWGQGTTVTVSSASTKGPSVFPLAPSSKSTSGGTAALGCLVKDYFPEPVTVSWNSGALTSGVHTFPAVLQSSGLYSLSSVVTVPSSSLGTQTYICNVNHKPSNTKVDKRVEPKSCDKTHTCPPCPAPEAAGGPSVFLFPPKPKDTLMISRTPEVTCVVVDVSHEDPEVKFNWYVDGVEVHNAKTKPREEQYNSTYRVVSVLTVLHQDWLNGKEYKCKVSNKALPAPIEKTISKAKGQPREPQVYTLPPSREEMTKNQVSLWCLVKGFYPSDIAVEWESNGQPENNYKTTPPVLDSDGSFFLYSKLTVDKSRWQQGNVFSCSVMHEALHNHYTQKSLSLSPG
chain 2: EAVVTQEPSLTVSPGGTVTLTCRSSTGAVTTSNYANWVQEKPGQLPRGLIGGTNKRAPWVPARFSGSLLGGKAALTLSGAQPEDEAEYFCALWYSNLWVFGGGTKLTVLGQPKAAPSVTLFPPSSEELQANKATLVCLISDFYPGAVKVAWKADGSPVNTGVETTTPSKQSNNKYAASSYLSLTPEQWKSHRSYSCQVTHEGSTVEKTVAPAECSGGGGSEGKSSGSGSESKSTEGKSSGSGSESKSTGGGGSEVQLVESGGGLVQPGGSLKLSCAASGFTFNTYAMNWVRQAPGKGLEWVARIRSKYNNYATYYADSVKDRFTISRDDSKNTAYLQMNNLKTEDTAVYYCVRHGNFGNSYVSWFAYWGQGTLVTVSAASTKGPSVFPLAPSSKSTSGGTAALGCLVKDYFPEPVTVSWNSGALTSGVHTFPAVLQSSGLYSLSSVVTVPSSSLGTQTYICNVNHKPSNTKVDKRVEPKSCDKTHTCPPCPAPEAAGGPSVFLFPPKPKDTLMISRTPEVTCVVVDVSHEDPEVKFNWYVDGVEVHNAKTKPREEQYNSTYRVVSVLTVLHQDWLNGKEYKCKVSNKALPAPIEKTISKAKGQPREPQVYTLPPSREEMTKNQVSLSCAVKGFYPSDIAVEWESNGQPENNYKTTPPVLDSDGSFFLVSKLTVDKSRWQQGNVFSCSVMHEALHNRFTQKSLSLSPG
notes: Heterodimer of one DLL3 chain and one CD3 chain (scFab-Fc, knob-in-hole)
In the case of B1, the “EC50 (read off the curve)” value [1] is reported as ~10 nM.

B2: DLL3#3/CD3#1 (bispecific antibody, human IgG1, kappa, lambda, L234A L235A)
chain 1: DIQMTQSPSAMSASVGDRVTITCRASQGISNYLVWFQQKPGKAPKRLIYAVSSLYSGVPSRFSGSGSGTEFTLTISSLQPEDFATYYCLQHDSYPYTFGQGTKLEIKRTVAAPSVFIFPPSDEQLKSGTASVVCLLNNFYPREAKVQWKVDNALQSGNSQESVTEQDSKDSTYSLSSTLTLSKADYEKHKVYACEVTHQGLSSPVTKSFNRGECGGGGSEGKSSGSGSESKSTEGKSSGSGSESKSTGGGGSQVQLVQSGAEVKKPGASVKVSCKASGYTFTSYYVHWVRQAPGQGLEWMVIINPGGGTTSYAQKFLGRVTMTRDTSTNTVYMELKSLRSEDTAVYYCARGEAVTGNYFYYGMDVWGQGTTVTVSSASTKGPSVFPLAPSSKSTSGGTAALGCLVKDYFPEPVTVSWNSGALTSGVHTFPAVLQSSGLYSLSSVVTVPSSSLGTQTYICNVNHKPSNTKVDKRVEPKSCDKTHTCPPCPAPEAAGGPSVFLFPPKPKDTLMISRTPEVTCVVVDVSHEDPEVKFNWYVDGVEVHNAKTKPREEQYNSTYRVVSVLTVLHQDWLNGKEYKCKVSNKALPAPIEKTISKAKGQPREPQVYTLPPSREEMTKNQVSLWCLVKGFYPSDIAVEWESNGQPENNYKTTPPVLDSDGSFFLYSKLTVDKSRWQQGNVFSCSVMHEALHNHYTQKSLSLSPG
chain 2: EAVVTQEPSLTVSPGGTVTLTCRSSTGAVTTSNYANWVQEKPGQLPRGLIGGTNKRAPWVPARFSGSLLGGKAALTLSGAQPEDEAEYFCALWYSNLWVFGGGTKLTVLGQPKAAPSVTLFPPSSEELQANKATLVCLISDFYPGAVKVAWKADGSPVNTGVETTTPSKQSNNKYAASSYLSLTPEQWKSHRSYSCQVTHEGSTVEKTVAPAECSGGGGSEGKSSGSGSESKSTEGKSSGSGSESKSTGGGGSEVQLVESGGGLVQPGGSLKLSCAASGFTFNTYAMNWVRQAPGKGLEWVARIRSKYNNYATYYADSVKDRFTISRDDSKNTAYLQMNNLKTEDTAVYYCVRHGNFGNSYVSWFAYWGQGTLVTVSAASTKGPSVFPLAPSSKSTSGGTAALGCLVKDYFPEPVTVSWNSGALTSGVHTFPAVLQSSGLYSLSSVVTVPSSSLGTQTYICNVNHKPSNTKVDKRVEPKSCDKTHTCPPCPAPEAAGGPSVFLFPPKPKDTLMISRTPEVTCVVVDVSHEDPEVKFNWYVDGVEVHNAKTKPREEQYNSTYRVVSVLTVLHQDWLNGKEYKCKVSNKALPAPIEKTISKAKGQPREPQVYTLPPSREEMTKNQVSLSCAVKGFYPSDIAVEWESNGQPENNYKTTPPVLDSDGSFFLVSKLTVDKSRWQQGNVFSCSVMHEALHNRFTQKSLSLSPG
notes: as for B1
With B2 the “Affinity gap KD hu/cyno DLL3” value [2] was 1 and the Kd [3] was < 0.01 nM.

B3: DLL3#4/CD3#1 (bispecific antibody, human IgG1, kappa, lambda, L234A L235A)
chain 1: not shown
chain 2: EAVVTQEPSLTVSPGGTVTLTCRSSTGAVTTSNYANWVQEKPGQLPRGLIGGTNKRAPWVPARFSGSLLGGKAALTLSGAQPEDEAEYFCALWYSNLWVFGGGTKLTVLGQPKAAPSVTLFPPSSEELQANKATLVCLISDFYPGAVKVAWKADGSPVNTGVETTTPSKQSNNKYAASSYLSLTPEQWKSHRSYSCQVTHEGSTVEKTVAPAECSGGGGSEGKSSGSGSESKSTEGKSSGSGSESKSTGGGGSEVQLVESGGGLVQPGGSLKLSCAASGFTFNTYAMNWVRQAPGKGLEWVARIRSKYNNYATYYADSVKDRFTISRDDSKNTAYLQMNNLKTEDTAVYYCVRHGNFGNSYVSWFAYWGQGTLVTVSAASTKGPSVFPLAPSSKSTSGGTAALGCLVKDYFPEPVTVSWNSGALTSGVHTFPAVLQSSGLYSLSSVVTVPSSSLGTQTYICNVNHKPSNTKVDKRVEPKSCDKTHTCPPCPAPEAAGGPSVFLFPPKPKDTLMISRTPEVTCVVVDVSHEDPEVKFNWYVDGVEVHNAKTKPREEQYNSTYRVVSVLTVLHQDWLNGKEYKCKVSNKALPAPIEKTISKAKGQPREPQVYTLPPSREEMTKNQVSLSCAVKGFYPSDIAVEWESNGQPENNYKTTPPVLDSDGSFFLVSKLTVDKSRWQQGNVFSCSVMHEALHNRFTQKSLSLSPG
notes: as for B1
With B3 the “EC50 (read off the curve)” value [4] was ~2 nM and the “EC50 (read off the curve)” value [5] was ~0.1 nM.
